T1: LPL on LPL-expressing cells (Example 1)
T1 sequence (P06858 28-475, species assumed, looked up): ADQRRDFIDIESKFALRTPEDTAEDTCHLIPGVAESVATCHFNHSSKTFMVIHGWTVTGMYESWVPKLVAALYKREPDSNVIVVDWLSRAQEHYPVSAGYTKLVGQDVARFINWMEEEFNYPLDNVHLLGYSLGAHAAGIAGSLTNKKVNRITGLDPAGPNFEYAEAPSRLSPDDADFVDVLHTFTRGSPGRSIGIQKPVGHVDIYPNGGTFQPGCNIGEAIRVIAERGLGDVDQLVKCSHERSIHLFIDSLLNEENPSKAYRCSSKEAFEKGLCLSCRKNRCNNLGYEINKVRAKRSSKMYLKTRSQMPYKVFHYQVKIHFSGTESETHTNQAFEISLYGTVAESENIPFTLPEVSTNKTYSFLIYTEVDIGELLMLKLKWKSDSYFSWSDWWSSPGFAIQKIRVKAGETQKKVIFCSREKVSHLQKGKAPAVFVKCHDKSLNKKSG


Biological target: T1, LPL on LPL-expressing cells (Example 1)
Assay: cell-based or functional assay

EC50 in the LPL assay (inhibition of LPL) [nM] | Binder
21.5 | human ANGPTL3 (ligand) SRIDQDNSSFDSLSPEPKSRFAMLDDVKILANGLLQLGHGLKDFVHKTKGQINDIFQKLNIFDQSFYDLSLQTSEIKEEEKELRRTTYKLQVKNEEVKNMSLELNSKLESLLEEKILLQQKVKYLEEQLTNLIQNQPETPEHPEVTSLKTFVEKQDNSIKDLLQTVEDQYKQLNQQHSQIKEIENQLRRTSIQEPTEISLSSKPRAPRTTPFLQLNEIRNVKHDGIPAECTTIYNRGEHTSGMYAIRPSNSQVFHVYCDVISGSPWTLIQHRIDGSQNFNETWENYKYGFGRLDGEFWLGLEKIYSIVKQSNYVLRIELEDWKDNKHYIEYSFYLGNHETNYTLHLVAITGNVPNAIPENKDLVFSTWDHKAKGHFNCPEGYSGGWWWHDECGENNLNGKYNKPRAKSKPERRRGLSWKSQNGRLYSIKSTKMLIHPTDSESFE
0.54 | human ANGPTL3/8 complex (other) chain 1: SRIDQDNSSFDSLSPEPKSRFAMLDDVKILANGLLQLGHGLKDFVHKTKGQINDIFQKLNIFDQSFYDLSLQTSEIKEEEKELRRTTYKLQVKNEEVKNMSLELNSKLESLLEEKILLQQKVKYLEEQLTNLIQNQPETPEHPEVTSLKTFVEKQDNSIKDLLQTVEDQYKQLNQQHSQIKEIENQLRRTSIQEPTEISLSSKPRAPRTTPFLQLNEIRNVKHDGIPAECTTIYNRGEHTSGMYAIRPSNSQVFHVYCDVISGSPWTLIQHRIDGSQNFNETWENYKYGFGRLDGEFWLGLEKIYSIVKQSNYVLRIELEDWKDNKHYIEYSFYLGNHETNYTLHLVAITGNVPNAIPENKDLVFSTWDHKAKGHFNCPEGYSGGWWWHDECGENNLNGKYNKPRAKSKPERRRGLSWKSQNGRLYSIKSTKMLIHPTDSESFEAAADYKDDDDK chain 2: APMGGPELAQHEELTLLFHGTLQLGQALNGVYRTTEGRLTKARNSLGLYGRTIELLGQEVSRGRDAAQELRASLLETQMEEDILQLQAEATAEVLGEVAQAQKVLRDSVQRLEVQLRSAWLGPAYREFEVLKAHADKQSHILWALTGHVQRQRREMVAQQHRLRQIQERLHTAALPA

From US20200199212A1 (Eli Lilly, published 2020)
